Test results as given in the supplement of paper PMC10567573.

B1: ESRRA (parent)
chain: LGVAQRSLPLQDELAFAEDLVLDE

Variants of: B1
Assay: protein stability index of a GFP-peptide fusion (GPS, HEK-293T) (PSI 1-6); higher = more stable
Settings: c terminus: a fixed tail appended
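Note: lentivirally expressed fusions sorted by FACS into six bins by GFP to DsRed ratio, PSI derived from sequencing read proportions per bin multiplied by bin number.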

Going from LGVAQRSLPLQDELAFAEDHVLDE [L20H] to LGVAQRSLPLQDELAFAEDTVLDE [L20T], the protein stability index rises from 4.81 to 5.16.

First: LGVAQRSLPLQDELAFAEDQVLDE [L20Q]
Second: LGVAQRSLPLQDELAFAEDAVLDE [L20A]
The protein stability index of the first is lower: 4.21 for the first, 4.42 for the second.

Going from LGVAQRSLPLQDELAFAEDIVLDE [L20I] to LGVAQRSLPLQDELAFAEDKVLDE [L20K], the protein stability index rises from 3.18 to 4.98.

Compared with LGVAQRSLPLQDELNFAEDLVLDE [A15N], LGVAQRSLPLQDELLFAEDLVLDE [A15L] is lower in protein stability index: 3.85 for the first, 3.81 for the second.

Going from LGVAQRSLPLQDELPFAEDLVLDE [A15P] to LGVAQRSLPLQDELDFAEDLVLDE [A15D], the protein stability index falls from 5.28 to 4.77.

Compared with LGVAQRSLPLQDELAFAEDLVLDK [E24K], LGVAQRSLPLQDELAFAEDLVLDW [E24W] is lower in protein stability index: 4.02 for the first, 2.21 for the second.

Compared with LGVAQRSLPLQDELAFAEDLVLDG [E24G], LGVAQRSLPLQDELAFAEDLVLDS [E24S] is lower in protein stability index: 4.13 for the first, 3.13 for the second.

First: LGVAQRSLPLQDELAFAEDLVLDV [E24V]
Second: LGVAQRSLPLQDELAFAEDLVLDL [E24L]
The protein stability index of the first is lower: 2.21 for the first, 2.3 for the second.

Compared with LGVAQRSLPLQDELAFAEDLVLDT [E24T], LGDAQRSLPLQDELAFAEDLVLDE [V3D] is higher in protein stability index: 3.11 for the first, 3.69 for the second.

Compared with LGLAQRSLPLQDELAFAEDLVLDE [V3L], LGHAQRSLPLQDELAFAEDLVLDE [V3H] is higher in protein stability index: 2.61 for the first, 2.76 for the second.

First: LGMAQRSLPLQDELAFAEDLVLDE [V3M]
Second: LGVAQRSLPLQDELAFVEDLVLDE [A17V]
The protein stability index of the first is lower: 2.12 for the first, 4.77 for the second.

First: LGVAQRSLPLQDELAFPEDLVLDE [A17P]
Second: LGVAQRSLPLQDELAFDEDLVLDE [A17D]
The protein stability index of the first is higher: 5.19 for the first, 4.99 for the second.

Going from LGVAQRSLPLQDELAFCEDLVLDE [A17C] to LGVAQRSLPLQDELAFQEDLVLDE [A17Q], the protein stability index rises from 4.9 to 5.4.

First: LGVAQRSLPLQDELAFFEDLVLDE [A17F]
Second: LGVAQRSLPLQDELAFIEDLVLDE [A17I]
The protein stability index of the first is higher: 4.19 for the first, 3.96 for the second.

Going from LGVAQRSLPLQDELAFEEDLVLDE [A17E] to LGVAQRSLPLQDELAFMEDLVLDE [A17M], the protein stability index falls from 5.09 to 4.88.

First: LGVAQRSLPLQDELAFHEDLVLDE [A17H]
Second: LGVAQRSLPIQDELAFAEDLVLDE [L10I]
The protein stability index of the first is higher: 4.95 for the first, 4.7 for the second.

First: LGVAQRSLPFQDELAFAEDLVLDE [L10F]
Second: LGVAQRSLPGQDELAFAEDLVLDE [L10G]
The protein stability index of the first is lower: 4.97 for the first, 5.43 for the second.

First: LGVAQRSLPRQDELAFAEDLVLDE [L10R]
Second: LGVAQRSLPCQDELAFAEDLVLDE [L10C]
The protein stability index of the first is higher: 5.44 for the first, 5.41 for the second.

Going from LGVAQRSLPSQDELAFAEDLVLDE [L10S] to LGVAQRSLPPQDELAFAEDLVLDE [L10P], the protein stability index falls from 5.19 to 4.33.

First: LGVAQRSLPYQDELAFAEDLVLDE [L10Y]
Second: LGVAQRSLPKQDELAFAEDLVLDE [L10K]
The protein stability index of the first is lower: 5.12 for the first, 5.21 for the second.

Compared with LGVAQRSWPLQDELAFAEDLVLDE [L8W], LGVAQRSMPLQDELAFAEDLVLDE [L8M] is lower in protein stability index: 3.63 for the first, 3.25 for the second.

Compared with LGVAQRSGPLQDELAFAEDLVLDE [L8G], LGVAQRSHPLQDELAFAEDLVLDE [L8H] is lower in protein stability index: 3.74 for the first, 2.88 for the second.

Going from LGVAQRSNPLQDELAFAEDLVLDE [L8N] to LGVAKRSLPLQDELAFAEDLVLDE [Q5K], the protein stability index falls from 2.91 to 2.39.

Going from LGVAHRSLPLQDELAFAEDLVLDE [Q5H] to LGVAVRSLPLQDELAFAEDLVLDE [Q5V], the protein stability index falls from 2.71 to 2.19.

Going from LGVAPRSLPLQDELAFAEDLVLDE [Q5P] to LGVAGRSLPLQDELAFAEDLVLDE [Q5G], the protein stability index falls from 3.39 to 2.26.

Compared with LGVAQRSLKLQDELAFAEDLVLDE [P9K], LGVAQRSLQLQDELAFAEDLVLDE [P9Q] is higher in protein stability index: 3.07 for the first, 4.66 for the second.

First: LGVAQRSLRLQDELAFAEDLVLDE [P9R]
Second: LGVAQRSLALQDELAFAEDLVLDE [P9A]
The protein stability index of the first is lower: 3.95 for the first, 4.37 for the second.

Compared with LGVAQRSLVLQDELAFAEDLVLDE [P9V], LGVAQRSLGLQDELAFAEDLVLDE [P9G] is lower in protein stability index: 4.05 for the first, 2.64 for the second.

Compared with LGVAQRSLSLQDELAFAEDLVLDE [P9S], LGVAQRSLPLQDELADAEDLVLDE [F16D] is lower in protein stability index: 3.49 for the first, 3.47 for the second.

Going from LGVAQRSLPLQDELATAEDLVLDE [F16T] to LGVAQRSLPLQDELAQAEDLVLDE [F16Q], the protein stability index falls from 5.04 to 2.68.

First: LGVAQRSLPLQDELANAEDLVLDE [F16N]
Second: LGVAQRSLPLQDELAGAEDLVLDE [F16G]
The protein stability index of the first is lower: 3.63 for the first, 4.64 for the second.

Going from LGVAQRSLPLQDELAVAEDLVLDE [F16V] to LGVAQRSLPLQDELAHAEDLVLDE [F16H], the protein stability index falls from 4.09 to 3.46.

First: LGVAQRSLPLQDELAKAEDLVLDE [F16K]
Second: LGVAQRSLPLQDELAMAEDLVLDE [F16M]
The protein stability index of the first is higher: 3.43 for the first, 2.81 for the second.

Compared with LGVAQRSLPLQDELAEAEDLVLDE [F16E], LGVAQRSLPLQDELAFAEDLVADE [L22A] is higher in protein stability index: 3.61 for the first, 3.96 for the second.

Going from LGVAQRSLPLQDELAFAEDLVDDE [L22D] to LGVAQRSLPLQDELAFAEDLVTDE [L22T], the protein stability index rises from 5.13 to 5.18.

Going from LGVAQRSLPLQDELAFAEDLVIDE [L22I] to LGVAQRSLPLQDELAFAEDLVNDE [L22N], the protein stability index rises from 3.55 to 4.69.

Compared with LGVAQRSLPLQDELAFAEDLVKDE [L22K], LGVAQRSLPLQDELAFAEDLVMDE [L22M] is higher in protein stability index: 2.74 for the first, 4.2 for the second.

Going from LGVAQRSLPLQDELAFAEDLVSDE [L22S] to LGVAQRSLPLQDELAFAEDLVEDE [L22E], the protein stability index rises from 5.02 to 5.71.

Going from LGVAQRSLPLQDELAFAEDLVWDE [L22W] to LGVAQRSLPLQDELAFAEDLVFDE [L22F], the protein stability index rises from 3.85 to 3.95.

Compared with LMVAQRSLPLQDELAFAEDLVLDE [G2M], LHVAQRSLPLQDELAFAEDLVLDE [G2H] is higher in protein stability index: 2.36 for the first, 2.78 for the second.

Going from LPVAQRSLPLQDELAFAEDLVLDE [G2P] to LSVAQRSLPLQDELAFAEDLVLDE [G2S], the protein stability index falls from 3.92 to 2.63.

Compared with LKVAQRSLPLQDELAFAEDLVLDE [G2K], LCVAQRSLPLQDELAFAEDLVLDE [G2C] is higher in protein stability index: 1.98 for the first, 2.69 for the second.

Compared with LYVAQRSLPLQDELAFAEDLVLDE [G2Y], LVVAQRSLPLQDELAFAEDLVLDE [G2V] is higher in protein stability index: 1.89 for the first, 2.34 for the second.

Going from HGVAQRSLPLQDELAFAEDLVLDE [L1H] to WGVAQRSLPLQDELAFAEDLVLDE [L1W], the protein stability index falls from 2.98 to 1.74.

Compared with KGVAQRSLPLQDELAFAEDLVLDE [L1K], CGVAQRSLPLQDELAFAEDLVLDE [L1C] is higher in protein stability index: 2.34 for the first, 2.57 for the second.

Compared with MGVAQRSLPLQDELAFAEDLVLDE [L1M], NGVAQRSLPLQDELAFAEDLVLDE [L1N] is lower in protein stability index: 2.63 for the first, 2.58 for the second.

Compared with GGVAQRSLPLQDELAFAEDLVLDE [L1G], QGVAQRSLPLQDELAFAEDLVLDE [L1Q] is higher in protein stability index: 3.19 for the first, 3.21 for the second.
